Source: IntAct's records for PubMed 25873389

B1: Protein deacetylase HDAC6 (Homo sapiens), Q9UBN7 (parent)
chain: MTSTGQDSTTTRQRRSRQNPQSPPQDSSVTSKRNIKKGAVPRSIPNLAEVKKKGKMKKLGQAMEEDLIVGLQGMDLNLEAEALAGTGLVLDEQLNEFHCLWDDSFPEGPERLHAIKEQLIQEGLLDRCVSFQARFAEKEELMLVHSLEYIDLMETTQYMNEGELRVLADTYDSVYLHPNSYSCACLASGSVLRLVDAVLGAEIRNGMAIIRPPGHHAQHSLMDGYCMFNHVAVAARYAQQKHRIRRVLIVDWDVHHGQGTQFTFDQDPSVLYFSIHRYEQGRFWPHLKASNWSTTGFGQGQGYTINVPWNQVGMRDADYIAAFLHVLLPVALEFQPQLVLVAAGFDALQGDPKGEMAATPAGFAQLTHLLMGLAGGKLILSLEGGYNLRALAEGVSASLHTLLGDPCPMLESPGAPCRSAQASVSCALEALEPFWEVLVRSTETVERDNMEEDNVEESEEEGPWEPPVLPILTWPVLQSRTGLVYDQNMMNHCNLWDSHHPEVPQRILRIMCRLEELGLAGRCLTLTPRPATEAELLTCHSAEYVGHLRATEKMKTRELHRESSNFDSIYICPSTFACAQLATGAACRLVEAVLSGEVLNGAAVVRPPGHHAEQDAACGFCFFNSVAVAARHAQTISGHALRILIVDWDVHHGNGTQHMFEDDPSVLYVSLHRYDHGTFFPMGDEGASSQIGRAAGTGFTVNVAWNGPRMGDADYLAAWHRLVLPIAYEFNPELVLVSAGFDAARGDPLGGCQVSPEGYAHLTHLLMGLASGRIILILEGGYNLTSISESMAACTRSLLGDPPPLLTLPRPPLSGALASITETIQVHRRYWRSLRVMKVEDREGPSSSKLVTKKAPQPAKPRLAERMTTREKKVLEAGMGKVTSASFGEESTPGQTNSETAVVALTQDQPSEAATGGATLAQTISEAAIGGAMLGQTTSEEAVGGATPDQTTSEETVGGAILDQTTSEDAVGGATLGQTTSEEAVGGATLAQTTSEAAMEGATLDQTTSEEAPGGTELIQTPLASSTDHQTPPTSPVQGTTPQISPSTLIGSLRTLELGSESQGASESQAPGEENLLGEAAGGQDMADSMLMQGSRGLTDQAIFYAVTPLPWCPHLVAVCPIPAAGLDVTQPCGDCGTIQENWVCLSCYQVYCGRYINGHMLQHHGNSGHPLVLSYIDLSAWCYYCQAYVHHQALLDVKNIAHQNKFGEDMPHPH

Variants of: B1
Details: with hdac9_mouse Hdac9, Q99N13
Chain of hdac9_mouse Hdac9, Q99N13 (Q99N13 whole entry): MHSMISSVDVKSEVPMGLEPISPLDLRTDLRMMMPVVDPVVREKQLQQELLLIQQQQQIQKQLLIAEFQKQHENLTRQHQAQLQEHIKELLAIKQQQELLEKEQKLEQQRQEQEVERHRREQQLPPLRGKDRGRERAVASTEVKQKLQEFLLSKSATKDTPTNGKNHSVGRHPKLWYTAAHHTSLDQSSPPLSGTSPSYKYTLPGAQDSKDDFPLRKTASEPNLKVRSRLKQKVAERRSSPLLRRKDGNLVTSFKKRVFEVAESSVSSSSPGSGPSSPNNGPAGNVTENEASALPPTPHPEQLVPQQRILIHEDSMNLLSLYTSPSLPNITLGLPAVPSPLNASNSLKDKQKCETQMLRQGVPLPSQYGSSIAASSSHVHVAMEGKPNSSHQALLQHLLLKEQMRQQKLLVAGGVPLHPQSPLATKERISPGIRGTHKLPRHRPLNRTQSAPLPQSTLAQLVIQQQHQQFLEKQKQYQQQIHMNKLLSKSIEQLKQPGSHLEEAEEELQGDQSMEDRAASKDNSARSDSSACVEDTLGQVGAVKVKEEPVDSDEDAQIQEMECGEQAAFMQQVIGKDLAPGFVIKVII

**Q.** Which “effect of a mutation on the interaction” value does the source give for H611A here?
**A.** The value was “decreasing interaction strength”.

**Q.** For H216A, which “effect of a mutation on the interaction” value is on record?
**A.** The value was “decreasing interaction strength”.

**Q.** For H216A;H611A, which “effect of a mutation on the interaction” value is on record?
**A.** Its value is “disrupting interaction strength”.
